Laboratory results published in PMC4954676.

| KM of cleavage of the peptide by thrombin (fluorescence polarisation cleavage assay, Michaelis-Menten fit) (human thrombin (human)) | fold reduction of kcat/KM of cleavage by thrombin, truncated FpA peptide against the full length peptide (human thrombin (human)) | kcat of cleavage of the peptide by thrombin (fluorescence polarisation cleavage assay, Michaelis-Menten fit) (human thrombin (human)) | fold reduction of kcat/KM of cleavage by rat thrombin, truncated rat FpA peptide against the full-length rat FpA peptide (rat thrombin (rat)) | kcat/KM of cleavage of the peptide by thrombin (fluorescence polarisation cleavage assay, Michaelis-Menten fit) (human thrombin (human)) | Substance |
| --- | --- | --- | --- | --- | --- |
| 630 µM | 490 fold | 0.25 s⁻¹ |  |  | synthetic peptide containing NEP-truncated human FpA and the first four residues of the main α-chain |
|  |  |  | 5.7 fold |  | synthetic peptide containing NEP-truncated rat FpA and the first four residues of the main α-chain |
| 51 µM |  | 9.1 s⁻¹ |  | 180000 M⁻¹ s⁻¹ | synthetic peptide containing full-length human FpA and the first four residues of the main α-chain |
